# Results from IntAct's records for PubMed 21423148.
# B1: Calcium-binding protein 39 (Homo sapiens), Q9Y376 (parent)
# chain: MPFPFGKSHKSPADIVKNLKESMAVLEKQDISDKKAEKATEEVSKNLVAMKEILYGTNEKEPQTEAVAQLAQELYNSGLLSTLVADLQLIDFEGKKDVAQIFNNILRRQIGTRTPTVEYICTQQNILFMLLKGYESPEIALNCGIMLRECIRHEPLAKIILWSEQFYDFFRYVEMSTFDIASDAFATFKDLLTRHKLLSAEFLEQHYDRFFSEYEKLLHSENYVTKRQSLKLLGELLLDRHNFTIMTKYISKPENLKLMMNLLRDKSRNIQFEAFHVFKVFVANPNKTQPILDILLKNQAKLIEFLSKFQNDRTEDEQFNDEKTYLVKQIRDLKRPAQQEA
# partner: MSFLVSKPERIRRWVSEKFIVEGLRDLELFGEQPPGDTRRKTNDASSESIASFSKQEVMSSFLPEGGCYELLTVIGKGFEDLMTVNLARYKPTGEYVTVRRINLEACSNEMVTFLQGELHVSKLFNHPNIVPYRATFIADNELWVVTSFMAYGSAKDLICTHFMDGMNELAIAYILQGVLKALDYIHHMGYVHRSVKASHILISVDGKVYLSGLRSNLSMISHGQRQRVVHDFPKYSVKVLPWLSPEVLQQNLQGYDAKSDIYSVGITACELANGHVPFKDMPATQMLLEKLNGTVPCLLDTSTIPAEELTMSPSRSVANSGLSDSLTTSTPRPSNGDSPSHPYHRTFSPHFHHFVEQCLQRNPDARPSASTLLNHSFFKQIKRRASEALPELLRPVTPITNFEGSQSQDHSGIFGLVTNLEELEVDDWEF
# B2: Calcium-binding protein 39 (Homo sapiens), Q9Y376 (parent)
# chain: B1 chain
# How the values were obtained:
# [1] = variants of: B1; conditions: with straa_human STRADA
# [2] = variants of: B2; conditions: with stk39_human STK39, Q9UEW8
# [3] = variants of: B2; conditions: with oxsr1_human OXSR1, O95747
# [4] = variants of: B2; conditions: with stk26_human STK26, Q9P289
# [5] = variants of: B2; conditions: with stk26_human STK26, Q9P289; remark: listed apart in the source
# [6] = variants of: B2; conditions: with stk39_human STK39, Q9UEW8; remark: listed apart in the source
# [7] = variants of: B2; conditions: with oxsr1_human OXSR1, O95747; remark: listed apart in the source
# [8] = variants of: B2; conditions: with stk25_human STK25, O00506
# [9] = variants of: B2; conditions: with stk26_human STK26, Q9P289; remark: listed apart in the source
# [10] = variants of: B2; conditions: with stk39_human STK39, Q9UEW8; remark: listed apart in the source
# [11] = variants of: B2; conditions: with oxsr1_human OXSR1, O95747; remark: listed apart in the source
# stk26_human STK26, Q9P289, sequence (Q9P289 whole entry, looked up): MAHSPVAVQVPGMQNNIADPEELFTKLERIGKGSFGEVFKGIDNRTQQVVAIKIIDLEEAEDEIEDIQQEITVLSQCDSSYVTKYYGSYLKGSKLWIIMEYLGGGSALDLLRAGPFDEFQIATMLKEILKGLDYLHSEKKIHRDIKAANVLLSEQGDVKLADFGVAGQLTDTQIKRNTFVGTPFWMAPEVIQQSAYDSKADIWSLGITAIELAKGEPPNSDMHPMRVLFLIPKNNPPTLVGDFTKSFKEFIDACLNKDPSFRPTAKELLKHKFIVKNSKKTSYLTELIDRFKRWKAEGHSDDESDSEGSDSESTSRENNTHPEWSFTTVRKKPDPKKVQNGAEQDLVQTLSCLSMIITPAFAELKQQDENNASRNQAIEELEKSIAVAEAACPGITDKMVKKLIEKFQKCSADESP
# oxsr1_human OXSR1, O95747, sequence (O95747 whole entry, looked up): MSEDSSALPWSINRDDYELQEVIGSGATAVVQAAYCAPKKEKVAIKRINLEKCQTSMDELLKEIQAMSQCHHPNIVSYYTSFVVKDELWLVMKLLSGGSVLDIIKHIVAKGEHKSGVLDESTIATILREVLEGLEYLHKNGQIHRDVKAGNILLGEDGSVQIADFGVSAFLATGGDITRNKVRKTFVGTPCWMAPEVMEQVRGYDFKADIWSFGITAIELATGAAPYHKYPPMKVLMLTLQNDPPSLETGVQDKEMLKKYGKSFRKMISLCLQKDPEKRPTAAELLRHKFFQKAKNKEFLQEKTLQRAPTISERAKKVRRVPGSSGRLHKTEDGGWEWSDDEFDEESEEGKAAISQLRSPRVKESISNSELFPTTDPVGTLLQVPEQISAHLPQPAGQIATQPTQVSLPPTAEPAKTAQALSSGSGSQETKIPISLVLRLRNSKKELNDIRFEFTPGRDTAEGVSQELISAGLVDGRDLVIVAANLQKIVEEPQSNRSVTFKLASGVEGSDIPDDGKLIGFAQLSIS
# stk25_human STK25, O00506, sequence (O00506 whole entry, looked up): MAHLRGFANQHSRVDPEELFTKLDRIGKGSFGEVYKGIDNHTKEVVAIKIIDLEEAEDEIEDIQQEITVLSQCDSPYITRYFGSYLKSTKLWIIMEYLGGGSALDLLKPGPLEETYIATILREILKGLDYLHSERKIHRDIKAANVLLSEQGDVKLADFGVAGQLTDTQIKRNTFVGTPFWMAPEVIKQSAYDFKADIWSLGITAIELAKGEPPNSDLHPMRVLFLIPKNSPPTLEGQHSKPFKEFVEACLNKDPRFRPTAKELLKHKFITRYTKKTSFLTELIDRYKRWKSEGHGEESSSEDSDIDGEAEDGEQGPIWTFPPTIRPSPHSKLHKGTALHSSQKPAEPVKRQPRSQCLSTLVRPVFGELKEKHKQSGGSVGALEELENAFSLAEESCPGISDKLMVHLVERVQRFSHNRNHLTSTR
effect of a mutation on the interaction [1],effect of a mutation on the interaction [2],effect of a mutation on the interaction [3],effect of a mutation on the interaction [4],effect of a mutation on the interaction [5],effect of a mutation on the interaction [6],effect of a mutation on the interaction [7],effect of a mutation on the interaction [8],effect of a mutation on the interaction [9],effect of a mutation on the interaction [10],effect of a mutation on the interaction [11],Variant
disrupting interaction,,,,,,,,,,,MPFPFGKSHKSPADIVKNLKESMAVLEKQDISDKKAEKATEEVSKNLVAMKEILYGTNEKEPQTEAVAQLAQELYNSGLLSTLVADLQLIDFEGKKDVAQIFNNILRRQIGTRTPTVEYICTQQNILFMLLKGYESPEIALNCGIMLRECIRHEPLAKIILWSEQFYDFFRYVEMSTFDIASDAFATFKDLLTRHKLLSAEFLEQHYDRFFSEYEKLLHSENYVTKRQSLKLLGELLLDRHNFTIMTKYISKPENLKLMANLLRDKSRNIQFEAFHVFKVFVANPNKTQPILDILLKNQAKLIEFLSKFQNDRTEDEQFNDEKTYLVKQIRDLKRPAQQEA [M260A]
,disrupting interaction,disrupting interaction,disrupting interaction,,,,disrupting interaction,decreasing interaction,decreasing interaction,decreasing interaction,MPFPFGKSHKSPADIVKNLKESMAVLEKQDISDKKAEKATEEVSKNLVAMKEILYGTNEKEPQTEAVAQLAQELYNSGLLSTLVADLQLIDFEGKKDVAQIFNNILRRQIGTRTPTVEYICTQQNILFMLLKGYESPEIALNCGIMLRECIRHEPLAKIILWSEQFYDFFRYVEMSTFDIASDAFATFKDLLTRHKLLSAEFLEQHYDRFFSEYEKLLHSENYVTKRQSLKLLGELLLDRHNFTIMTKYISKPENLKLMANLLRDKSRNIQFEAFHVFKVFVANPNKTQPILDILLKNQAKLIEFLSKFQNDRTEDEQFNDEKTYLVKQIRDLKRPAQQEA [M260A]

# The next lines start with the variant.
Variant,effect of a mutation on the interaction [1],effect of a mutation on the interaction [2],effect of a mutation on the interaction [3],effect of a mutation on the interaction [4],effect of a mutation on the interaction [5],effect of a mutation on the interaction [6],effect of a mutation on the interaction [7],effect of a mutation on the interaction [8],effect of a mutation on the interaction [9],effect of a mutation on the interaction [10],effect of a mutation on the interaction [11]
MPFPFGKSHKSPADIVKNLKESMAVLEKQDISDKKAEKATEEVSKNLVAMKEILYGTNEKEPQTEAVAQLAQELYNSGLLSTLVADLQLIDFEGKKDVAQIFNNILRRQIGTRTPTVEYICTQQNILFMLLKGYESPEIALNCGIMLRECIRHEPLAKIILWSEQFYDFFRYVEMSTFDIASDAFATFKDLLTRHKLLSAEFLEQHYDRFFSEYEKLLHSENYVTKAQSLKLLGELLLDRHNFTIMTKYISKPENLKLMMNLLRDKSRNIQFEAFHVFKVFVANPNKTQPILDILLKNQAKLIEFLSKFQNDRTEDEQFNDEKTYLVKQIRDLKRPAQQEA [R227A],disrupting interaction,,,,,,,,,,
MPFPFGKSHKSPADIVKNLKESMAVLEKQDISDKKAEKATEEVSKNLVAMKEILYGTNEKEPQTEAVAQLAQELYNSGLLSTLVADLQLIDFEGKKDVAQIFNNILRRQIGTRTPTVEYICTQQNILFMLLKGYESPEIALNCGIMLRECIRHEPLAKIILWSEQFYDFFRYVEMSTFDIASDAFATFKDLLTRHKLLSAEFLEQHYDRFFSEYEKLLHSENYVTKAQSLKLLGELLLDRHNFTIMTKYISKPENLKLMMNLLRDKSRNIQFEAFHVFKVFVANPNKTQPILDILLKNQAKLIEFLSKFQNDRTEDEQFNDEKTYLVKQIRDLKRPAQQEA [R227A],,disrupting interaction,disrupting interaction,disrupting interaction,decreasing interaction,decreasing interaction,decreasing interaction,disrupting interaction,,,
